The values below come from paper PMC5505246, “Assembly of Francisella novicida Cpf1 endonuclease in complex with guide RNA and target DNA”.

This data set addresses FnCpf1 (Cas12a) (Francisella novicida U112, UniProt A0Q7Q2 1-1300). Kind of data set: native PAGE / preparative native electrophoresis; 5 mM MgCl2; protein:RNA:DNA 1:1.3:1.7; Reconstitution: 81 mM KCl, 38 mM bicine pH 8.0, 5 mM MgCl2; protein + crRNA 30 min at 293 K, then DNA duplex 60 min at 368 K (so in the source); complex in 150 mM KCl, 50 mM bicine pH 8.0, 0.5 mM TCEP. To be noted: protein: recombinant; tags: C-terminal His6; crRNA-guided DNA target.

Sequence of FnCpf1 (Cas12a) (A0Q7Q2 whole entry): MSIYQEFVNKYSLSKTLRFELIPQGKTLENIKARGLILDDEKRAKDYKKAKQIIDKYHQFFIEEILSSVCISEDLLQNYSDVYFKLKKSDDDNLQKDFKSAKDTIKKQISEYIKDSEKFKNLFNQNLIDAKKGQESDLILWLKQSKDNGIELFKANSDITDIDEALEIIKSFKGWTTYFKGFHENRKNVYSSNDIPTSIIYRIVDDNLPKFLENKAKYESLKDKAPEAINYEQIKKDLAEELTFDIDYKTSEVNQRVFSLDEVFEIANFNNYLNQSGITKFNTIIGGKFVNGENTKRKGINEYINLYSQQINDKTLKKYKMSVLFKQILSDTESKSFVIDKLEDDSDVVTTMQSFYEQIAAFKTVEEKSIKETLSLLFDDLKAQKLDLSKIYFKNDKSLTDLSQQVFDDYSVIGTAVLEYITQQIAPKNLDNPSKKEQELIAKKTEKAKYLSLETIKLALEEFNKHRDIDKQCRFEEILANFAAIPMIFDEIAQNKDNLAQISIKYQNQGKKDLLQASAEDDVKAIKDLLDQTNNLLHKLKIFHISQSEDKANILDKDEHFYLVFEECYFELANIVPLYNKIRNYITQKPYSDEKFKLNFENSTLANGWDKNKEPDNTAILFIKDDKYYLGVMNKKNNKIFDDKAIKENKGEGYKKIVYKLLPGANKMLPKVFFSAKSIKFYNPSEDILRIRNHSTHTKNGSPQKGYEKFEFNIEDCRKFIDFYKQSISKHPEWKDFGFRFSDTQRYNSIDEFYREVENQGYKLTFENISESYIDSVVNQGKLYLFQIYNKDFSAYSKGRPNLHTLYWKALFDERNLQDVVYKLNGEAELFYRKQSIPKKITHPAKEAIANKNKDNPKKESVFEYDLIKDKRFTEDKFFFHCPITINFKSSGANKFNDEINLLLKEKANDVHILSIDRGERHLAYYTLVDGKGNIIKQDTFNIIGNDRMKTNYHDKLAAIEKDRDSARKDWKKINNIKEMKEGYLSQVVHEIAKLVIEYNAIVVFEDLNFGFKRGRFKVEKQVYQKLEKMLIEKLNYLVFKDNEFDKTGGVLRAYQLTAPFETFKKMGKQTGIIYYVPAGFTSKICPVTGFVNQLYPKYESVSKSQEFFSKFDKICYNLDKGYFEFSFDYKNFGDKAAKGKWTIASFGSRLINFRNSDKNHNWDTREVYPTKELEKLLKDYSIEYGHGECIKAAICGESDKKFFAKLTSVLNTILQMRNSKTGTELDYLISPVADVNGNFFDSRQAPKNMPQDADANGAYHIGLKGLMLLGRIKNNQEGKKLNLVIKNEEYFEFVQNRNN

B1: crRNA + 31-nt dsDNA target (target and nontarget strands) (mixed)
RNA: AAUUUCUACUGUUGUAGAUGAGAAGUCAUUUAAUAAGGCCACU
DNA 1: GCAGTGGCCTTATTAAATGACTTCTCTAACG
DNA 2: CGTTAGAGAAGTCATTTAATAAGGCCACTGC
For B1, the binding result is listed as “binds”.
